Measurements as given in article PMC12430004.
Read-outs that look alike come from different tables or passages of the source.

T1: hPNPase Q387R (Homo sapiens, UniProt Q8TCS8 46-783, Q387R)
T1 sequence: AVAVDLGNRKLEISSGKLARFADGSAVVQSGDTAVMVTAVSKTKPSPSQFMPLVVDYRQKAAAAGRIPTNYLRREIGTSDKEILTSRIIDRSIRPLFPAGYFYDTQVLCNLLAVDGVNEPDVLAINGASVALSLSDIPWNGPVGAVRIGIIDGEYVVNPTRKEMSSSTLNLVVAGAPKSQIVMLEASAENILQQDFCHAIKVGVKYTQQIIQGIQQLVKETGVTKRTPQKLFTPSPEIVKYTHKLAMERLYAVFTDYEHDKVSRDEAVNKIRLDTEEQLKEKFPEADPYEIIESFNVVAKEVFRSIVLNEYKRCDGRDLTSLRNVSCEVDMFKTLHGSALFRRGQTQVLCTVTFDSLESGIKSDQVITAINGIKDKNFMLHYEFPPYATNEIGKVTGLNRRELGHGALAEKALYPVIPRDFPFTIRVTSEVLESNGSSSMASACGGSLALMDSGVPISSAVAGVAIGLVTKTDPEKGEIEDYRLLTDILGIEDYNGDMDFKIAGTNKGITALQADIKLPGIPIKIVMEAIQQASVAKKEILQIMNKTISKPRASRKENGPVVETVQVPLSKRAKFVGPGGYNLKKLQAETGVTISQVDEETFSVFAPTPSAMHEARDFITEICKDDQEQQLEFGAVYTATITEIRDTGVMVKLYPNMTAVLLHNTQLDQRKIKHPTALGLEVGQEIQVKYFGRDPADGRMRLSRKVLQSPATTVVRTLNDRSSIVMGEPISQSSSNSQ

T2: hPNPase E475G (Homo sapiens, UniProt Q8TCS8 46-783, E475G)
T2 sequence: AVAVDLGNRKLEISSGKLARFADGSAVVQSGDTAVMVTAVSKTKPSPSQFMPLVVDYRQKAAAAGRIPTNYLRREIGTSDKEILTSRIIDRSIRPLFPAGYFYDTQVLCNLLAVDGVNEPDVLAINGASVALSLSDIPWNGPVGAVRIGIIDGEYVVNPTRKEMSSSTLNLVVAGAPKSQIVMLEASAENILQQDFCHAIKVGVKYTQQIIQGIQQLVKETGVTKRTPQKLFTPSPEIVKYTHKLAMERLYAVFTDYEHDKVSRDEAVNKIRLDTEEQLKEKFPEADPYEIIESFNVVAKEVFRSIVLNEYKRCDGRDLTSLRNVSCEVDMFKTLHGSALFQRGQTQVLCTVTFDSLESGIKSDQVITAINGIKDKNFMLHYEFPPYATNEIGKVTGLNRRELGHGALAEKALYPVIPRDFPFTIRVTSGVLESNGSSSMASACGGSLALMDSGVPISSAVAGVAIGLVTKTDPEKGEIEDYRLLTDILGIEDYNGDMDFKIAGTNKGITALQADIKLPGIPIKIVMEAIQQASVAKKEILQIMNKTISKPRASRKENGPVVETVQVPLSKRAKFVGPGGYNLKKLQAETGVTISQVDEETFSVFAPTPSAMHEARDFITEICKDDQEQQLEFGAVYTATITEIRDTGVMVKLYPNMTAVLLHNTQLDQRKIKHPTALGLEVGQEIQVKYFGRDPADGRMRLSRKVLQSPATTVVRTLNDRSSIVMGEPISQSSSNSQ

T3: hPNPase P140L (Homo sapiens, UniProt Q8TCS8 46-783, P140L)
T3 sequence: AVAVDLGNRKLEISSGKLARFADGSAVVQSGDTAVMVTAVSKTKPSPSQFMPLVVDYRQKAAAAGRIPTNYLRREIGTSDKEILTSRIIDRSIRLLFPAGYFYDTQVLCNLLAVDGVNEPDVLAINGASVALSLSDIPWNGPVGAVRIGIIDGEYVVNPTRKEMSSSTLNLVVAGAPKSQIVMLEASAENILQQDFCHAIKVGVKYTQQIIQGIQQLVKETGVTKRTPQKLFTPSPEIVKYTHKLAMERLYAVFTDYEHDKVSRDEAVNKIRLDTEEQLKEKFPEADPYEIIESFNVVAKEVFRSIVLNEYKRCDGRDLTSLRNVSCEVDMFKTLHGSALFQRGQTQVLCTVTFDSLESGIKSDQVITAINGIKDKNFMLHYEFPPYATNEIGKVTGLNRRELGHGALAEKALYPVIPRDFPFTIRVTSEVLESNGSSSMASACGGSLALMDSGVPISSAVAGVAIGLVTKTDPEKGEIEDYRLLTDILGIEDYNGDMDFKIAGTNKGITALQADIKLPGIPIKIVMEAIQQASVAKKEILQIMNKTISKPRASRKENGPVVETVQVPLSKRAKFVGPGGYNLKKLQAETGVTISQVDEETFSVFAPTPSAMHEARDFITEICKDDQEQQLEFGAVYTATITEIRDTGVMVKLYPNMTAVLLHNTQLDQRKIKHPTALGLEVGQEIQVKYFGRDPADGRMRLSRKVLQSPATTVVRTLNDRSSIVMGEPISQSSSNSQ


Columns and labels:
Test in all cases: EMSA
hPNPase Q387R [1] = biological target: T1, hPNPase Q387R
hPNPase E475G [2] = biological target: T2, hPNPase E475G
hPNPase P140L = biological target: T3, hPNPase P140L
hPNPase Q387R [3] = biological target: T1, hPNPase Q387R; remark: listed apart in the source
hPNPase E475G [4] = biological target: T2, hPNPase E475G; remark: listed apart in the source

Row | Binder | binding result (hPNPase Q387R [1]) | binding result (hPNPase E475G [2]) | binding result (hPNPase P140L) | binding result (hPNPase Q387R [3]) | binding result (hPNPase E475G [4])
1 | ACTGGACAAATACTCCGACG (ssDNA) [DNA20] | no binding | no binding | no binding | – | –
2 | ACUGGACAAAUACUCCGACG (ssRNA) [RNA20] | – | – | – | no binding | no binding
